The supplement of paper PMC7125110
± gives the standard error. For part of these data: Fewer inactive variants are shown than the library holds.

B1: glmS ribozyme (parent)
chain: AUAAAAGCGCCAGAACUACAGAAAUGUAGUUGACGAGGAGGAGGUUUAUCGAAUUUUCGGCGGAUGCCUCCAAA

Assays:
Conditions in all cases: with glucosamine-6-phosphate
[1] = variants of: B1; test: kcat; higher = faster cleavage; RNA array
In short: (§1)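 Barcoded ribozyme variants on sequenced MiSeq chips were transcribed in situ by E. coli RNA polymerase and followed at 37 °C through a hybridised Cy3 probe. Glucosamine-6-phosphate at 40 μM to 10 mM in HEPES/KCl/Mg(OAc)2 buffer was flowed in, and tiles were imaged over ~14 h. Signals were normalised to baseline and to non-cleaving reference variants, and per-tile medians were fit to one- or two-exponential decays to give kobs. Weighted Michaelis–Menten fits across concentrations gave kcat and KM.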

[2] = variants of: B1; test: self-cleavage kobs at 40 uM GlcN6P; higher = faster cleavage; RNA array
In short: as §1

[3] = variants of: B1; test: self-cleavage kobs at 2500 uM GlcN6P; higher = faster cleavage; RNA array
In short: as §1

[4] = variants of: B1; test: self-cleavage kobs at 10000 uM GlcN6P; higher = faster cleavage; RNA array
In short: as §1

[5] = variants of: B1; test: self-cleavage kobs at 160 uM GlcN6P; higher = faster cleavage; RNA array
In short: as §1

[6] = variants of: B1; test: self-cleavage kobs at 640 uM GlcN6P; higher = faster cleavage; RNA array
In short: as §1

[7] = variants of: B1; test: KM; higher = weaker cofactor use; RNA array
In short: as §1

Variant	kcat [1]	self-cleavage kobs at 40 uM GlcN6P [2]	self-cleavage kobs at 2500 uM GlcN6P [3]	self-cleavage kobs at 10000 uM GlcN6P [4]	self-cleavage kobs at 160 uM GlcN6P [5]	self-cleavage kobs at 640 uM GlcN6P [6]	KM [7]
G7C G37C	< 1e-05 s⁻¹	< 1e-05 s⁻¹	< 1e-05 s⁻¹	< 1e-05 s⁻¹			
C10G U56A	< 1e-05 s⁻¹				< 1e-05 s⁻¹	< 1e-05 s⁻¹	
C11G A33U	< 1e-05 s⁻¹		< 1e-05 s⁻¹		< 1e-05 s⁻¹		
C11A A52U C67G	2.85e-05 ± 4.6e-06 s⁻¹						
C11A U49A	< 1e-05 s⁻¹		< 1e-05 s⁻¹			< 1e-05 s⁻¹	
C8U U49A	< 1e-05 s⁻¹	< 1e-05 s⁻¹	< 1e-05 s⁻¹	< 1e-05 s⁻¹		< 1e-05 s⁻¹	
C10U G60A C71U	1.14e-05 ± 1.1e-06 s⁻¹						2050 ± 570 µM
C10U A36G	< 1e-05 s⁻¹	< 1e-05 s⁻¹		< 1e-05 s⁻¹		< 1e-05 s⁻¹	
C11U C16A	0.000174 ± 7e-06 s⁻¹		0.000106 ± 2.2e-05 s⁻¹	0.000145 ± 2.9e-05 s⁻¹		4.38e-05 ± 1.9e-05 s⁻¹	1760 ± 190 µM
G9U C34G C58G C68U	4.14e-05 ± 1.9e-05 s⁻¹				5.81e-05 ± 2.8e-05 s⁻¹		
C10U U47C	< 1e-05 s⁻¹	< 1e-05 s⁻¹				< 1e-05 s⁻¹	
C11G A15G	1.01e-05 ± 1.4e-06 s⁻¹					< 1e-05 s⁻¹	
G9A C67A	< 1e-05 s⁻¹	< 1e-05 s⁻¹			< 1e-05 s⁻¹		
C11A U30G	0.000664 ± 7.4e-05 s⁻¹		0.000172 ± 5.6e-05 s⁻¹	0.000422 ± 9.6e-05 s⁻¹		6.39e-05 ± 1.1e-05 s⁻¹	6140 ± 920 µM
C11U A15C	0.000738 ± 0.00012 s⁻¹		0.000368 ± 6.1e-05 s⁻¹	0.000585 ± 4.9e-05 s⁻¹	2.57e-05 ± 1.1e-05 s⁻¹	0.000194 ± 2.9e-05 s⁻¹	2490 ± 850 µM
C10A U69C	1.7e-05 ± 1.9e-06 s⁻¹						
C8U G37A C58G	< 1e-05 s⁻¹						
C11A G41A	< 1e-05 s⁻¹				< 1e-05 s⁻¹	< 1e-05 s⁻¹	2450 ± 650 µM
C11A A53U	0.000128 ± 2.5e-06 s⁻¹		6.02e-05 ± 1.6e-05 s⁻¹	9.96e-05 ± 1.2e-05 s⁻¹			2860 ± 180 µM
G9A U45A	1.6e-05 ± 1.8e-06 s⁻¹				< 1e-05 s⁻¹		
A6U A64G	0.000266 ± 4.3e-05 s⁻¹		0.000128 ± 1.6e-05 s⁻¹	0.00025 ± 2.8e-05 s⁻¹		7.26e-05 ± 7.4e-06 s⁻¹	1910 ± 590 µM

Variant	kcat [1]	self-cleavage kobs at 40 uM GlcN6P [2]	self-cleavage kobs at 2500 uM GlcN6P [3]	self-cleavage kobs at 10000 uM GlcN6P [4]	self-cleavage kobs at 160 uM GlcN6P [5]	self-cleavage kobs at 640 uM GlcN6P [6]	KM [7]
A6G C50G C68U	0.000115 ± 2.9e-05 s⁻¹	5.04e-05 ± 2.1e-05 s⁻¹	0.000173 ± 4.6e-05 s⁻¹	7.92e-05 ± 2.5e-05 s⁻¹	9.16e-05 ± 2.3e-05 s⁻¹	0.000189 ± 4.8e-05 s⁻¹	
C11A U54G	0.000149 ± 2.7e-05 s⁻¹		7.77e-05 ± 1.3e-05 s⁻¹	0.000123 ± 1.4e-05 s⁻¹			
G9U A48U C58G C67U	< 1e-05 s⁻¹	< 1e-05 s⁻¹				< 1e-05 s⁻¹	
C10U U56A	2.68e-05 ± 5.7e-06 s⁻¹	< 1e-05 s⁻¹	3.47e-05 ± 1.4e-05 s⁻¹				
C10A C70U	2.11e-05 ± 9.5e-06 s⁻¹		2.56e-05 ± 1.3e-05 s⁻¹				
A6G G43C C68G	0.000785 ± 0.00019 s⁻¹	3.71e-05 ± 1.7e-05 s⁻¹	0.000399 ± 0.00011 s⁻¹	0.000819 ± 0.00015 s⁻¹	9.17e-05 ± 2.6e-05 s⁻¹	0.000423 ± 8.3e-05 s⁻¹	1000 ± 470 µM
G7A U45C	< 1e-05 s⁻¹					< 1e-05 s⁻¹	
G7U G60A	< 1e-05 s⁻¹		< 1e-05 s⁻¹	< 1e-05 s⁻¹		< 1e-05 s⁻¹	
A6U C16G U55A	1.73e-05 ± 5.1e-06 s⁻¹						
A6U U49A C71G	3.45e-05 ± 8.5e-06 s⁻¹						
C11A U55C	0.000132 ± 2.4e-05 s⁻¹		0.000125 ± 4.2e-05 s⁻¹	0.000109 ± 2.1e-05 s⁻¹		3.19e-05 ± 1.5e-05 s⁻¹	
G7A A36U A39C C68A C71G	1e-05 ± 4e-06 s⁻¹						
C10U A39U	1.59e-05 ± 5e-07 s⁻¹	< 1e-05 s⁻¹			< 1e-05 s⁻¹	< 1e-05 s⁻¹	6310 ± 460 µM
C11A C61U C67G	< 1e-05 s⁻¹						
C10A G51U G63C	1.02e-05 ± 4.6e-07 s⁻¹		< 1e-05 s⁻¹				731 ± 360 µM
C10G C67U	< 1e-05 s⁻¹	< 1e-05 s⁻¹					
C11A C58A	2e-05 ± 2.2e-07 s⁻¹	< 1e-05 s⁻¹			< 1e-05 s⁻¹	< 1e-05 s⁻¹	1680 ± 98 µM
C11A C16U	0.000159 ± 1.5e-05 s⁻¹		9.79e-05 ± 1.5e-05 s⁻¹	0.000151 ± 1.8e-05 s⁻¹		6.65e-05 ± 1.5e-05 s⁻¹	1110 ± 340 µM
C10U A53G	2.78e-05 ± 1.2e-06 s⁻¹	< 1e-05 s⁻¹		1.69e-05 ± 7.4e-06 s⁻¹			6420 ± 600 µM
C8A C67A	< 1e-05 s⁻¹		< 1e-05 s⁻¹		< 1e-05 s⁻¹		
C10U C68G	2.34e-05 ± 4.7e-06 s⁻¹		2.5e-05 ± 7.6e-06 s⁻¹				
